{
  "source": "patent US20230192857A1",
  "key": {"[1]": {"target": "JAK1 kinase domain (JH1) (Homo sapiens) (UniProt P23458)", "sequence (P23458 854-1154 limits assumed)": "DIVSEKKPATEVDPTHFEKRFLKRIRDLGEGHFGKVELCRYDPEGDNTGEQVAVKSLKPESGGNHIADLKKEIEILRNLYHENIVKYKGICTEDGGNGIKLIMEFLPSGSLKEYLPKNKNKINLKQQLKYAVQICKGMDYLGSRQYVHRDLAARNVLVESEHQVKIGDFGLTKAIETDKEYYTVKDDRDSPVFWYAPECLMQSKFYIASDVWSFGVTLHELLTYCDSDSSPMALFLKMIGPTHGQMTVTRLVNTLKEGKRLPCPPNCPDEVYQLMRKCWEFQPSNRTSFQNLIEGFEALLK", "test": "cell-based or functional assay"}, "[2]": {"target": "JAK1-Y1034 phosphopeptide with an alanine substitution at the +3 position (UniProt P23458)", "test": "ITC"}, "[3]": {"target": "phosphopeptide corresponding to Tyr1034 within the JAK1 kinase domain activation loop (UniProt P23458)", "test": "ITC"}},
  "note": "pKd: −log10 of the molar value.",
  "data": [
    {"substance": "hCIS-SH2-BC complex (recombinant trimeric complex of human GST-CIS-SH2 construct with Elongins B and C) (from UniProt Q9NSE2 66-258; Q15370 1-118; Q15369 17-112)", "values": [
      {"measurement": "efficiency of JAK1 JH1 kinase inhibition relative to SOCS1", "setting": "[1]", "value": 100, "unit": "fold lower"},
      {"measurement": "fold selectivity of kinase inhibition, JAK1 against JAK2, JAK3 or TYK2 (JH1 domains)", "setting": "[1]", "value": "> 20", "unit": "fold"}
    ]},
    {"substance": "human CIS lacking both the N-terminal region and the PEST motif (ΔNT/ΔPEST), trimeric complex with elongins B and C (from UniProt Q9NSE2 67-258; Q15370 1-118; Q15369 17-112)", "values": [
      {"measurement": "fold reduction of binding against the wild-type JAK1-Y1034 phosphopeptide", "setting": "[2]", "value": 4, "unit": "fold"}
    ]},
    {"substance": "human CIS lacking the N-terminal 34 residues (ΔN34), trimeric complex with elongins B and C (from UniProt Q9NSE2 35-258; Q15370 1-118; Q15369 17-112)", "values": [
      {"measurement": "pKd", "setting": "[3]", "value": "5.00 to 5.66"}
    ]}
  ]
}
